Target: Flag-PKM2 from the nuclear fraction of U87 cells (UniProt P14618)
Assay: SEC; Flag-PKM2 eluted with flag peptide in TBS (25 mM Tris, 150 mM NaCl, pH 7.2); Superdex 200 increase 10/300 GL, 4 °C, 0.5 mL/min; fractions analysed by western blot

Sequence of Flag-PKM2 from the nuclear fraction of U87 cells, P14618 1-531 (enzyme; other documents disagree on this pair) (P14618 whole entry): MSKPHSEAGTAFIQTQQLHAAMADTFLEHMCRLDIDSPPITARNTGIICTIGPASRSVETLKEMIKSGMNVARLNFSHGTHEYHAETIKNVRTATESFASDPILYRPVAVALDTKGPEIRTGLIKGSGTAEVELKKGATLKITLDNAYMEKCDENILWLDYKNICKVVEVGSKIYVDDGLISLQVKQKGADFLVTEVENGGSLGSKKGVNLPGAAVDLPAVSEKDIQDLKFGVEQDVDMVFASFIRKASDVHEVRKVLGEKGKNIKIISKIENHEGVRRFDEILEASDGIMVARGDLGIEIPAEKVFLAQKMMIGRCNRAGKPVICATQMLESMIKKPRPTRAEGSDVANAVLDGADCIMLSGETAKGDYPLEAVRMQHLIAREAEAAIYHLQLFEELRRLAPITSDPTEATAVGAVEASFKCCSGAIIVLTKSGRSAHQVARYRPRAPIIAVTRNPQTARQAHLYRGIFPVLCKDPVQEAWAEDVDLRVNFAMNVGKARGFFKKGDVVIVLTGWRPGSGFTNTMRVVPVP

- stoichiometry N: 2
Substance: Flag-PKM2 from the nuclear fraction of U87 cells, P14618 1-531 (enzyme; other documents disagree on this pair)
